To fix the notation:
B1: rabbit soluble type CD14 (in New Zealand white rabbit serum) (receptor, UniProt Q28680 18-342, looked up)
chain: STDTPEPCELDDDDIRCVCNFSDPQPDWSSALQCMPAVQVEMWGGGHSLEQFLRQADLYTDQRRYADVVKALRVRRLTVGAVQVPAPLLLGVLRVLGYSRLKELALEDIEVTGTAPPPPPLEATGPALSTLSLRNVSWPKGGAWLSELQQWLKPGLQVLNIAQAHTLAFSCEQVRTFSALTTLDLSENPGLGERGLVAALCPHKFPALQDLALRNAGMKTLQGVCAALAEAGVQPHHLDLSHNSLRADTQRCIWPSALNSLNLSFTGLQQVPKGLPAKLNVLDLSCNKLNRAPQPGELPKVVNLSLDGNPFLVPGASKLQEDLTN
B2: soluble type CD14 purified from human serum (receptor)
chain: TTPEPCELDDEDFRCVCNFSEPQPDWSEAFQCVSAVEVEIHAGGLNLEPFLKRVDADADPRQYADTVKALRVRRLTVGAAQVPAQLLVGALRVLAYSRLKELTLEDLKITGTMPPLPLEATGLALSSLRLRNVSWATGRSWLAELQQWLKPGLKVLSIAQAHSPAFSCEQVRAFPALTSLDLSDNPGLGERGLMAALCPHKFPAIQNLALRNTGIETPTGVCAALAAAGVQPHSLDLSHNSLRATVNPSAPRCMWSSALNSLNLSFAGLEQVPKGLPAKLRVLDLSCNRLNRAPQPDELPEVDNLTLDGNPFLVPGTALPHEGSMNSGVVPACARSTLSVGVSGTLVL
B3: rhesus monkey soluble type CD14 (in serum) (receptor)
chain: TTPEPCELDDEDFRCVCNFSEPHPDWSEAFQCVSAVEVEIRVGGLSLEPFLTRVDPDADPRQYADTIKALRVRRLTVGAAQVPAQLLVGALRVLAYSRLQELTLEDLEITGTMPPLPLEATGLALSSLRLHNVSWATGRSWLAELQQWLKPGLKVLSIAQAHSPAFSCEQVRAFPALTSLDLSDNPGLGERGLIAALCPHKFPALQNLALRNTGMETPTGVCAALAAAGVQPHSLDLSHNSLRATANPSAPRCMWSSALNSLNLSFAGLEQVPKGLPAKLRVLDLSCNRLNRRPRPDELPQVDNLALDGNPFLVPGTALPQEGSMN
B4: crab-eating macaque soluble type CD14 (in serum) (receptor)
chain: B3 chain

In this test the target is F1024-1-3 antibody (monoclonal antibody produced by hybridoma F1024-1-3, Accession No. FERM BP-7511). The test can be described thus: competition ELISA: 4-fold diluted serum mixed with 1 µg/mL peroxidase-labeled F1024-1-3, added to immobilised human CD14(1-356).
For the molecule B1, the inhibition ratio of binding of F1024-1-3 antibody to human CD14 was 52%.
Next, B2: 83%.
Next, B3: 44%; B4: 57%.

Source of the values: patent publication US20040091478A1.
